Substrate: O=C(O)/C=C/c1ccc(O)c(O)c1
Assay: radiometric methyltransferase assay, scintillation counting, nonlinear Michaelis-Menten fit
Type: biochemical, Brachypodium distachyon
Settings: co-substrate S-[methyl-14C]-adenosyl-L-methionine plus unlabeled SAM, 0.1 M Tris-HCl pH 7.5, 30°C, 20 min, methods heading b55 names BdCOMT1

B1: BdCOMT4 (Brachypodium distachyon) (protein)
chain: MGSTAADMAATADEEACMFALQLASSSILPMTLKNAIELGLLDTLVQASGKSLTPAEVAAKLPSSSNPAAPDMVDRMLRLLASYGVVSCAVEEGENGKLSRRYAAAPVCKWLTPNEDGVSMAALALMNQDKVLMESWYYLKDAVLDGGIPFNKAYGMSAFEYHGTDPRFNRVFNEGMKNHSIIITKKLLDLYPGFEGLGTLVDVGGGVGATVGAIVARHPAIKGINFDLPHVISEGIPFPGVTHVGGDMFQKVPSGDAILMKWILHDWSDAHCATLLKNCYDALPAHGKVVIVECILPVNPEATPKAQGVFHVDMIMLAHNPGGKERYEREFEELARGAGFTGVKATYIYANAWAIEFTK
notes: full-length cDNA (from Bd21-3 plants) in pQE-T7-1, NdeI/XhoI, His-tagged; primer adds Met-Lys-Gln before native Met; expressed in E. coli, Ni-NTA purified
Km: 187 µM
